From PMC7305236
No end group written: not given here.

Experiments:
[1] = target: mu opioid receptor (MOR) C-terminally tagged with SmBiT (UniProt P35372)
[2] = target: delta opioid receptor (DOR) C-terminally tagged with SmBiT (UniProt P41143)
[3] = target: atypical chemokine receptor ACKR3 (formerly CXCR7) (human) (UniProt P25106)
[4] = target: ACKR3 C-terminally tagged with SmBiT (human) (UniProt P25106)
[5] = target: kappa opioid receptor (KOR) C-terminally tagged with SmBiT (UniProt P41145)
[6] = target: ACKR3 C-terminally tagged with SmBiT (human) (UniProt P25106); remark: listed apart in the source
[7] = target: ACKR3 C-terminally tagged with SmBiT (human) (UniProt P25106); remark: listed apart in the source

Chain of atypical chemokine receptor ACKR3 (formerly CXCR7) (human) (P25106 whole entry): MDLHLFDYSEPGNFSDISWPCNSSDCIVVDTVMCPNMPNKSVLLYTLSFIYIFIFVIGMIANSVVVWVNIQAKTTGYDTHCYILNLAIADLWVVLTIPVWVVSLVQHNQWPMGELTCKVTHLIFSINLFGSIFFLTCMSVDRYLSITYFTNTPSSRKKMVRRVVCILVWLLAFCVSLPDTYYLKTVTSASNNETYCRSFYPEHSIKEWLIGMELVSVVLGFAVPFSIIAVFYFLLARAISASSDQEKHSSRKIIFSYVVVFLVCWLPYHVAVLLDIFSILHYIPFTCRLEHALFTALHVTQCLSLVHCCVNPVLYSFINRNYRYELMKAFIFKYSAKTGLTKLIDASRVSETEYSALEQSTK
Chain of ACKR3 C-terminally tagged with SmBiT (human) (P25106 whole entry): as above

Which results are given for YGGFM [Met enkephalin]?
β-arrestin-1 recruitment (NanoBiT, U87 cells): EC50 [1]: 419 nM; β-arrestin-1 recruitment (NanoBiT, U87 cells): EC50 [2]: 16.3 nM

How did the Supplementary Table 5: EC50 of β-arrestin-1 recruitment to ACKR3 [3] turn out when FGGWMRRF-NH2 [second-generation peptide FGGWMRRF] was run?
Its Supplementary Table 5: EC50 of β-arrestin-1 recruitment to ACKR3 is 19.1 nM.

Which Supplementary Table 5: EC50 of β-arrestin-1 recruitment to ACKR3 [3] does the source give for FGGWMRRFR-NH2 here?
The Supplementary Table 5: EC50 of β-arrestin-1 recruitment to ACKR3 was 19.1 nM.

How did the Supplementary Table 5: EC50 of β-arrestin-1 recruitment to ACKR3 [3] turn out when FGGFMRRFR-NH2 was run?
The Supplementary Table 5: EC50 of β-arrestin-1 recruitment to ACKR3 was 16.3 nM.

With YGGFMRRVGRPEWWMDYQKRYG [BAM22] as the binder, how does the β-arrestin-1 recruitment (NanoBiT, U87 cells): EC50 [1] read?
The β-arrestin-1 recruitment (NanoBiT, U87 cells): EC50 was 10 nM.

And the β-arrestin-1 recruitment (NanoBiT, U87 cells): EC50 [4]?
The β-arrestin-1 recruitment (NanoBiT, U87 cells): EC50 was 23.5 nM.

What about the β-arrestin-1 recruitment (NanoBiT, U87 cells): EC50 [5] of the same binder?
Its β-arrestin-1 recruitment (NanoBiT, U87 cells): EC50 is 44.2 nM.

And the β-arrestin-1 recruitment (NanoBiT, U87 cells): EC50 [2]?
Its β-arrestin-1 recruitment (NanoBiT, U87 cells): EC50 is 367 nM.

Which potency in β-arrestin-1 recruitment against wild-type adrenorphin (U87 cells) [6] does the source give for FGGFMRRV-NH2 [adrenorphin Y1F variant] here?
Its potency in β-arrestin-1 recruitment against wild-type adrenorphin (U87 cells) is 10 fold.

B1: CXCL11 (ligand)
chain: FPMFKRGRCLCIGPGVKAVKVADIEKASIMYPSNNCDKIEVIITLKENKGQRCLNPKSKQARLIIKKVERKNF
For B1, which β-arrestin recruitment to ACKR3 (Fig. 4b): EC50 [7] is on record?
Its β-arrestin recruitment to ACKR3 (Fig. 4b): EC50 is 2.2 nM.
